Measured values from FireProtDB (doi:10.1093/protein/7.6.777).

B1: Subtilisin-chymotrypsin inhibitor-2A, P01053 (parent)
chain: MSSVEKKPEGVNTGAGDRHNLKTEWPELVGKSVEEAKKVILQDKPEAQIIVLPVGTIVTMEYRIDRVRLFVDKLDNIAQVPRVG

Variants of: B1
Conditions: Hordeum vulgare, structure 2CI2, whole UniProt chain shown; for Tm / unfolding enthalpy (calorimetric): Thermal, DSC; for denaturant m value / denaturant midpoint (higher = more stable) / unfolding free energy: pH 6.25, 25 °C, GdnHCl, Fluorescence, MES 50 mM

| Variant | Tm (pH 3, glycine-HCl 10 mM) [°C] | unfolding enthalpy (calorimetric) (pH 3, glycine-HCl 10 mM) [kcal/mol] | denaturant m value [kcal/mol/M] | denaturant midpoint (higher = more stable) [M] | unfolding free energy [kcal/mol] | Tm (pH 3.5, formate 10 mM) [°C] | unfolding enthalpy (calorimetric) (pH 3.5, formate 10 mM) [kcal/mol] |
| --- | --- | --- | --- | --- | --- | --- | --- |
| S32A E34A E35A | 56.2 | 54 | 2.18 | 3.14 | 6.86 | – | – |
| E34Q | – | – | 1.87 | 3.85 | 7.03 | – | – |
| E34N | – | – | 2.01 | 3.64 | 7.29 | – | – |
| E34D | – | – | 1.83 | 3.73 | 6.84 | – | – |
| S32G E34A E35A | 56.5 | 55 | 2.15 | 3.16 | 6.79 | – | – |
| E34A E35A | 60.1 | 58 | 2.11 | 3.61 | 7.61 | – | – |
| S32G | – | – | 2.1 | 3.59 | 7.52 | 69 | 64 |
| S32A | 58 | 53 | 1.86 | 3.54 | 6.58 | – | – |
| E35N | – | – | 2.18 | 3.45 | 7.53 | – | – |
| E35D | – | – | 2.2 | 3.62 | 7.98 | – | – |
| E35Q | – | – | 1.84 | 3.76 | 6.92 | – | – |
